Data published in patent US20220048967A1 (published 2022).
Where a chain is given by its changes, count along the chain named. Numbered stars: 1 amine (or outer) side, 2 acyl side, 3 side chain; on linkers, the order of the positions; unused ones are H or OH. Square brackets hold non-standard residues; d marks the D form. Side chains are listed from the residue outwards. Ends that are not written are not given here. * marks the point of attachment. C20 diacid = O=C(O)CCCCCCCCCCCCCCCCCCC(=O)*; γGlu = O=C(O)[C@H](CCC(=O)[*:2])N[*:1]; αMeL = CC(C)C[C@](C)(N)C(=O)O; Dab = NCC[C@H](N)C(=O)O; Dap = NC[C@H](N)C(=O)O; AEEA = NCCOCCOCC(=O)O; Aib = CC(C)(N)C(=O)O

B1: Example 337 (peptide)
peptide: FXEGTFTSDYSIXLDKKAQXAFIEYLIAGGPSSGAPPPS
modifications: not fully specified; Aib2, αMeL13, K17 conjugated to (2-[2-(2-Amino-ethoxy)-ethoxy]-acetyl)2-(γ-Glu)-CO-(CH2)18-CO2H, Aib20, C-terminal amide (NH2)
B2: Example 349 (peptide)
peptide: B1 peptide with F1X, K16X, A21E
modifications: D-Tyr1, Aib2, αMeL13, Orn16, K17 conjugated to (2-[2-(2-Amino-ethoxy)-ethoxy]-acetyl)2-(γ-Glu)-CO-(CH2)18-CO2H, Aib20, C-terminal amide (NH2)
B3: Example 339 (peptide)
peptide: B1 peptide with F1Y, A21E
modifications: not fully specified; Aib2, αMeL13, K17 conjugated to (2-[2-(2-Amino-ethoxy)-ethoxy]-acetyl)-(γ-Glu)-CO-(CH2)18-CO2H, Aib20, C-terminal amide (NH2)
B4: Example 343 (peptide)
peptide: B1 peptide with F1Y, K16E, E24X
modifications: not fully specified; Aib2, αMeL13, K17 conjugated to (2-[2-(2-Amino-ethoxy)-ethoxy]-acetyl)2-(γ-Glu)-CO-(CH2)18-CO2H, Aib20, D-Glu24, C-terminal amide (NH2)
B5: Example 344 (peptide)
peptide: B1 peptide with F1Y, K16E, A21D
modifications: not fully specified; Aib2, αMeL13, K17 conjugated to (2-[2-(2-Amino-ethoxy)-ethoxy]-acetyl)2-(γ-Glu)-CO-(CH2)18-CO2H, Aib20, C-terminal amide (NH2)
B6: Example 342 (peptide)
peptide: B1 peptide with F1X, K16E, A21E
modifications: not fully specified; D-Tyr1, Aib2, αMeL13, K17 conjugated to (2-[2-(2-Amino-ethoxy)-ethoxy]-acetyl)2-(γ-Glu)-CO-(CH2)18-CO2H, Aib20, C-terminal amide (NH2)
B7: Example 345 (peptide)
peptide: B1 peptide with F1X, F6X, A21E
modifications: D-Tyr1, Aib2, αMeF6, αMeL13, K17 conjugated to (2-[2-(2-Amino-ethoxy)-ethoxy]-acetyl)2-(γ-Glu)-CO-(CH2)18-CO2H, Aib20, C-terminal amide (NH2)
B8: Example 346 (peptide)
peptide: B1 peptide with F1X, K16X
modifications: D-Tyr1, Aib2, αMeL13, Orn16, K17 conjugated to (2-[2-(2-Amino-ethoxy)-ethoxy]-acetyl)2-(γ-Glu)-CO-(CH2)18-CO2H, Aib20, C-terminal amide (NH2)
B9: Example 341 (peptide)
peptide: B1 peptide with F1X, K16E
modifications: not fully specified; D-Tyr1, Aib2, αMeL13, K17 conjugated to (2-[2-(2-Amino-ethoxy)-ethoxy]-acetyl)2-(γ-Glu)-CO-(CH2)18-CO2H, Aib20, C-terminal amide (NH2)
B10: Example 340 (peptide)
peptide: B1 peptide with F1X
modifications: not fully specified; D-Tyr1, Aib2, αMeL13, K17 conjugated to (2-[2-(2-Amino-ethoxy)-ethoxy]-acetyl)2-(γ-Glu)-CO-(CH2)18-CO2H, Aib20, C-terminal amide (NH2)
B11: Example 347 (peptide)
peptide: [dY][Aib]EGTFTSDYSI[αMeL]LD[Dab]K([AEEA-AEEA-γGlu-C20 diacid])AQ[Aib]AFIEYLIAGGPSSGAPPPS-NH2
modifications: N-terminus assumed
SMILES: CC[C@H](C)[C@H](NC(=O)[C@H](CC(C)C)NC(=O)[C@H](Cc1ccc(O)cc1)NC(=O)[C@H](CCC(=O)O)NC(=O)[C@@H](NC(=O)[C@H](Cc1ccccc1)NC(=O)[C@H](C)NC(=O)C(C)(C)NC(=O)[C@H](CCC(N)=O)NC(=O)[C@H](C)NC(=O)[C@H](CCCCNC(=O)COCCOCCNC(=O)COCCOCCNC(=O)CC[C@H](NC(=O)CCCCCCCCCCCCCCCCCCC(=O)O)C(=O)O)NC(=O)[C@H](CCN)NC(=O)[C@H](CC(=O)O)NC(=O)[C@H](CC(C)C)NC(=O)[C@](C)(CC(C)C)NC(=O)[C@@H](NC(=O)[C@H](CO)NC(=O)[C@H](Cc1ccc(O)cc1)NC(=O)[C@H](CC(=O)O)NC(=O)[C@H](CO)NC(=O)[C@@H](NC(=O)[C@H](Cc1ccccc1)NC(=O)[C@@H](NC(=O)CNC(=O)[C@H](CCC(=O)O)NC(=O)C(C)(C)NC(=O)[C@H](N)Cc1ccc(O)cc1)[C@@H](C)O)[C@@H](C)O)[C@@H](C)CC)[C@@H](C)CC)C(=O)N[C@@H](C)C(=O)NCC(=O)NCC(=O)N1CCC[C@H]1C(=O)N[C@@H](CO)C(=O)N[C@@H](CO)C(=O)NCC(=O)N[C@@H](C)C(=O)N1CCC[C@H]1C(=O)N1CCC[C@H]1C(=O)N1CCC[C@H]1C(=O)N[C@@H](CO)C(N)=O
B12: Example 348 (peptide)
peptide: [dY][Aib]EGTFTSDYSI[αMeL]LD[Dap]K([AEEA-AEEA-γGlu-C20 diacid])AQ[Aib]AFIEYLIAGGPSSGAPPPS-NH2
modifications: N-terminus assumed
SMILES: CC[C@H](C)[C@H](NC(=O)[C@H](CC(C)C)NC(=O)[C@H](Cc1ccc(O)cc1)NC(=O)[C@H](CCC(=O)O)NC(=O)[C@@H](NC(=O)[C@H](Cc1ccccc1)NC(=O)[C@H](C)NC(=O)C(C)(C)NC(=O)[C@H](CCC(N)=O)NC(=O)[C@H](C)NC(=O)[C@H](CCCCNC(=O)COCCOCCNC(=O)COCCOCCNC(=O)CC[C@H](NC(=O)CCCCCCCCCCCCCCCCCCC(=O)O)C(=O)O)NC(=O)[C@H](CN)NC(=O)[C@H](CC(=O)O)NC(=O)[C@H](CC(C)C)NC(=O)[C@](C)(CC(C)C)NC(=O)[C@@H](NC(=O)[C@H](CO)NC(=O)[C@H](Cc1ccc(O)cc1)NC(=O)[C@H](CC(=O)O)NC(=O)[C@H](CO)NC(=O)[C@@H](NC(=O)[C@H](Cc1ccccc1)NC(=O)[C@@H](NC(=O)CNC(=O)[C@H](CCC(=O)O)NC(=O)C(C)(C)NC(=O)[C@H](N)Cc1ccc(O)cc1)[C@@H](C)O)[C@@H](C)O)[C@@H](C)CC)[C@@H](C)CC)C(=O)N[C@@H](C)C(=O)NCC(=O)NCC(=O)N1CCC[C@H]1C(=O)N[C@@H](CO)C(=O)N[C@@H](CO)C(=O)NCC(=O)N[C@@H](C)C(=O)N1CCC[C@H]1C(=O)N1CCC[C@H]1C(=O)N1CCC[C@H]1C(=O)N[C@@H](CO)C(N)=O
B13: Example 350 (peptide)
peptide: [dY][Aib]EGTFTSDYSI[αMeL]LD[Dab]K([AEEA-AEEA-γGlu-C20 diacid])AQ[Aib]EFIEYLIAGGPSSGAPPPS-NH2
modifications: N-terminus assumed
SMILES: CC[C@H](C)[C@H](NC(=O)[C@H](CC(C)C)NC(=O)[C@H](Cc1ccc(O)cc1)NC(=O)[C@H](CCC(=O)O)NC(=O)[C@@H](NC(=O)[C@H](Cc1ccccc1)NC(=O)[C@H](CCC(=O)O)NC(=O)C(C)(C)NC(=O)[C@H](CCC(N)=O)NC(=O)[C@H](C)NC(=O)[C@H](CCCCNC(=O)COCCOCCNC(=O)COCCOCCNC(=O)CC[C@H](NC(=O)CCCCCCCCCCCCCCCCCCC(=O)O)C(=O)O)NC(=O)[C@H](CCN)NC(=O)[C@H](CC(=O)O)NC(=O)[C@H](CC(C)C)NC(=O)[C@](C)(CC(C)C)NC(=O)[C@@H](NC(=O)[C@H](CO)NC(=O)[C@H](Cc1ccc(O)cc1)NC(=O)[C@H](CC(=O)O)NC(=O)[C@H](CO)NC(=O)[C@@H](NC(=O)[C@H](Cc1ccccc1)NC(=O)[C@@H](NC(=O)CNC(=O)[C@H](CCC(=O)O)NC(=O)C(C)(C)NC(=O)[C@H](N)Cc1ccc(O)cc1)[C@@H](C)O)[C@@H](C)O)[C@@H](C)CC)[C@@H](C)CC)C(=O)N[C@@H](C)C(=O)NCC(=O)NCC(=O)N1CCC[C@H]1C(=O)N[C@@H](CO)C(=O)N[C@@H](CO)C(=O)NCC(=O)N[C@@H](C)C(=O)N1CCC[C@H]1C(=O)N1CCC[C@H]1C(=O)N1CCC[C@H]1C(=O)N[C@@H](CO)C(N)=O

Target: human GLP-1 receptor (human, UniProt P43220 24-463)
Experiment: cell-based or functional assay

Binder	hGLP1R GTPgS % Top [%]	hGLP1R GTPgS Rel EC50 [nM]
B1	59.5	0.322
B2	64.5	0.464
B3	74.1	0.326
B4	74.9	0.522
B5	85.8	0.423
B6	77.2	0.414
B7	62	0.684
B8	56.6	0.737
B9	78.9	0.496
B10	67.4	0.45
B11	46.9	0.759
B12	47.7	0.66
B13	64.1	0.589

Target: Pro-Link-tagged Human GLP-1R (human, UniProt P43220 24-463)
Experiment: cell-based or functional assay

Binder	hGLP1R B-Arrestin2 % Top [%]	hGLP1R B-Arrestin2 Rel EC50 [nM]
B1	34.1	17.4
B2	18.4	15.1
B3	44	10.7
B4	41.4	45.5
B5	46	34.3
B6	20.7	35
B7	74.7	3.08
B8	19.3	3.25
B9	21.9	18.8
B10	20.1	10.7
B11	24.6	5.42
B12	19.8	3.46
B13	21.8	10.8
